From US20160333101A1 (GENOR BIOPHARMA, published 2016) come the findings set out here.

The target of one test is T1, recombinant human RANKL (human, UniProt O14788 136-317).
T1 construct: Expressed in CHO cells, purified on a nickel column; the secretion signal is not described; also called hRANKL; soluble RANKL protein
T1 sequence: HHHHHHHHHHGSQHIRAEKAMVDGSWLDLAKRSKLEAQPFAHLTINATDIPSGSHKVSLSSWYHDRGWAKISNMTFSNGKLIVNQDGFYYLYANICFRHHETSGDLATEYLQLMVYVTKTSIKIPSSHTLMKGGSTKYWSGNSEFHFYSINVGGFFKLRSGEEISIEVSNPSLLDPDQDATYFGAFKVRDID
As to the kind of experiment: ELISA, coated recombinant human RANKL, RANK-Fc titrated, anti-human IgG-Fc. As to the method:
(§1) The samples are diluted to 1 μg/ml, was added 100 and incubated overnight at 4° C. RANK-Fc gradient diluted from 10 μg/ml is added, 1:20,000 dilution of secondary antibody (goat anti-human IgG-Fc) is added, the sample is incubated for 1 hour at room temperature, is colored using TMB chromogenic color system. Absorbance value to each well of the 96-well plate is measured on the multifunction microplate reader with a measurement wavelength of 450 nm, a reference wavelength of 630 nm, absorbance value to each well (OD)=OD450 nm-OD630 nm.
In general terms: In an ELISA, binding on a coated surface is turned into a signal by an enzyme label.

Test [1] deals with T2, commercial hRANKL standard (human, UniProt O14788 140-317, limits assumed).
T2 construct: Bought; construct not described; also called commercially available RANKL standard from R & D Systems; commercially available hRANKL standard
T2 sequence (looked up): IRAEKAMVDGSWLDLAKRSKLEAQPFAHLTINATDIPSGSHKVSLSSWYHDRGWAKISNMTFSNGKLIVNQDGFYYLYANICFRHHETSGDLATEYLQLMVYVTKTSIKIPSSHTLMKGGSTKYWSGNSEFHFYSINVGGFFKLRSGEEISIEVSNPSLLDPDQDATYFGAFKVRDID
Nature of the test: ELISA, coated commercial hRANKL standard, RANK-Fc titrated, anti-human IgG-Fc. As to the method: as §1

B1: RANK-Fc (Fc fusion)
chain: IAPPCTSEKHYEHLGRCCNKCEPGKYMSSKCTTTSDSVCLPCGPDEYLDSWNEEDKCLLHKVCDTGKALVAVVAGNSTTPRRCACTAGYHWSQDCECCRRNTECAPGLGAQHPLQLNKDTVCKPCLAGYFSDAFSSTDKCRPWTNCTFLGKRVEHHGTEKSDAVCSSSLPARKPPNEPHVYLP
notes: Bought from R & D Systems; also called receptor RANK-Fc; not shown: Human IgG Fc part and any linker of the bought R & D Systems RANK-Fc
In the case of B1, the EC50 (in general, the concentration at which the effect is half-maximal) with recombinant human RANKL stood at 10.9 ng/mL; in test [1] it was 5.6 ng/mL.
